Literature values as cited in publication PMC12332068.

Columns and labels:
[1] = molecular target: Bzz1 SH3#1 (Saccharomyces cerevisiae) (UniProt P38822); test: BLI
[2] = molecular target: Bzz1 SH3#1-2 (Saccharomyces cerevisiae) (UniProt P38822); test: BLI

With Las17 300-422 (from UniProt Q12446) as the substance, how does the Kd [1] read?
Its Kd is 7.5 µM.

And the Kd [2]?
The Kd was 0.087 µM.
